The values below come from patent US20100221240A1, “Chemically Modified Peptide Analogs” (FRAUNHOFER-GESELLSCHAFT ZUR FORDERUNG DER ANGEWANDTEN …, priority 2004, published 2010).

For data set [1] the following is noted: Nyholm B. et al. 2001; cited from earlier work.
Data set [2] can be described thus: Sedimentation test (solubility; BCA protein determination of pellet and supernatant). In kind it is physicochemical. The following applies: pH 7.4. The protocol: a) The sedimentation test was used to investigate the solubility of the analogs compared to IAPP. The quantity of precipitated or soluble peptide was determined as a function of time. In one typical experiment, first a peptide solution at a given concentration (1, 10, or 100 μM) in 10 mM sodium phosphate buffer, pH 7.4 was prepared. Aliquots of this solution were centrifuged at specified times (20200 g, 20 min), and precipitated protein in the pellet and supernatant was quantified using the bicinchonic acid (BCA) protein determination assay. FIG. 1 illustrates several results from this test. […] After 20 h IAPP was completely precipitated; in contrast, the N-methylated IAPP-LA [sic; IAPP-AL], IAPP-GI, and IAPP-AF [sic; IAPP-FA] analogs remained soluble over 14 days, even at a concentration of 100 μM. IAPP completely precipitated after only 2 h under the latter-referenced conditions (100 μM).

Data set [3] is described as follows: ThT binding assay of the fibrile formation potential of the peptides alone. It counts as physicochemical. The following applies: 2% HFIP, 10 mM tris, pH 7.4. As for the experimental part:
b) Amyloid fibriles from various protein species bind to the dye ThT and result in an increase in the maximum fluorescence emission of the […]. The ThT binding is therefore a specific test widely used for quantifying amyloid fibriles. This test was used to determine the amyloid formation potential of the analogs compared to IAPP. For this test the analogs and IAPP were incubated at a concentration of 62.5 μm [sic; μM] (2% HFIP, 10 mM tris, pH 7.4). […] aliquots from these incubations were combined with […] of a 5 μM ThT solution (in 0.1 M glycine-NaOH buffer, pH 8.5), mixed, and after excitation at 450 nm the emission from the solution was determined at 485 nm. It was shown that IAPP forms fibriles at a concentration of 625 nM.

Data set [4] can be described thus: EM analysis of peptide solutions for fibriles. In kind it is physicochemical. The settings on record: 5 μM, 10 mM sodium phosphate buffer pH 7.4, 1% HFIP, approximately 20 h at RT. As for the experimental part:
c) For EM analyses, 5-μM solutions of the analogs versus IAPP (in 10 mM sodium phosphate buffer, pH 7.4, containing 1% HFIP) were incubated for approximately 20 h at RT. 10 μL of the solutions was then applied to EM plates, and after dyeing with 1% uranyl acetate as described in Kayed, J. Mol. Biol. (1999) 287, 781-796 was analyzed for the presence of fibriles by means of EM.

For another data set, the target named is T1, IAPP (Homo sapiens, UniProt P10997).
T1 construct: Natural human IAPP
T1 sequence (P10997 34-70 limits assumed): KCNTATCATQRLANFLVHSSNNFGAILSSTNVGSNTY
Nature of the data set: EM-tracked aggregation test of IAPP in 1:1 mixture with analogs. The settings on record: IAPP 5 μM alone or 1:1 with analog, 10 mM sodium phosphate pH 7.4, 1% HFIP, 20 h. In kind it is biochemical. The protocol:
In one typical aggregation test tracked by EM, IAPP (5 μM) was incubated alone or in the presence of one of the analogs, in a 1:1 ratio (in 10 mM sodium phosphate buffer, pH 7.4, containing 1% HFIP). After 20 h, 10 μL of the solution was applied to an EM plate, and after dyeing with 1% uranyl acetate as described in Kayed, J. Mol. Biol. (1999) 287, 781-796 was analyzed for the presence of fibriles by means of EM.

In data set [5] the target is T2, IAPP receptor on MCF-7 cells (Homo sapiens, UniProt P30988).
T2 construct: Specific IAPP receptors are expressed in the MCF-7 cell line; endogenous in cells; host or cells: MCF-7 (human breast cancer cells)
T2 sequence (P30988 25-474): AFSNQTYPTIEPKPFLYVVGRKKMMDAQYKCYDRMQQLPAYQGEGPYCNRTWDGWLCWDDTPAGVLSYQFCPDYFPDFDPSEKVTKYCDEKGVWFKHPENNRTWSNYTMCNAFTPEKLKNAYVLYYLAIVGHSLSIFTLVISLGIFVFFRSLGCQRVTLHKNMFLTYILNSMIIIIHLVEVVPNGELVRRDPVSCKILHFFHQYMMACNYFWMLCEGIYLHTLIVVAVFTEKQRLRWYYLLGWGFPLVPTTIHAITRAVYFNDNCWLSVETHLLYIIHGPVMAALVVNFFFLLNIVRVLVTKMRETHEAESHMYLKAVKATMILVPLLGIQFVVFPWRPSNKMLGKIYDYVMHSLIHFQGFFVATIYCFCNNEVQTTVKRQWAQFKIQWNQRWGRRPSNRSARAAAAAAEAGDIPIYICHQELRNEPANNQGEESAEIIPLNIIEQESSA
Nature of the data set: Stability in solution: preservation of AC activation potential (hormonal activity) on storage. It counts as cell-based. The settings on record: 250 μM or 1 mg/mL, sodium phosphate pH 7.4, RT, 4 days; 1 μM end concentration on cells. The protocol: To [determine] the potential applicability of the analogs as an IAPP or pramlintide replacement in the treatment of diabetes and/or other diseases, the stability of the solutions of the analogs and thus their hormonal activity in comparison to readily aggregating IAPP was investigated. In one typical assay, aqueous solutions of IAPP, IAPP-AL, IAPP-GI, or 1:1 mixtures of the analogs with IAPP (250 μM or 1 mg/mL) in […] sodium phosphate, pH 7.4, were used at RT and incubated for 4 days. The AC activation potential of these solutions was determined at various times, e.g., at times 0, 48 h, and 96 h, by means of the AC activation assay described above (end concentration in the cells was 1 μM, corresponding to maximum activation) (FIG. 9).

[6] abbreviates: 10 μM in 10 mM sodium phosphate buffer.

With `CC[C@H](C)[C@H](NC(=O)[C@@H]1CCCN1C(=O)CNC(=O)[C@H](Cc1ccccc1)NC(=O)[C@H](CC(N)=O)NC(=O)[C@H](CC(N)=O)NC(=O)[C@H](CO)NC(=O)[C@H](CO)NC(=O)[C@H](Cc1c[nH]cn1)NC(=O)[C@@H](NC(=O)[C@H](CC(C)C)NC(=O)[C@H](Cc1ccccc1)NC(=O)[C@H](CC(N)=O)NC(=O)[C@H](C)NC(=O)[C@H](CC(C)C)NC(=O)[C@H](CCCNC(=N)N)NC(=O)[C@H](CCC(N)=O)NC(=O)[C@@H](NC(=O)[C@H](C)NC(=O)[C@@H]1CSSC[C@H](NC(=O)[C@@H](N)CCCCN)C(=O)N[C@@H](CC(N)=O)C(=O)N[C@@H]([C@@H](C)O)C(=O)N[C@@H](C)C(=O)N[C@@H]([C@@H](C)O)C(=O)N1)[C@@H](C)O)C(C)C)C(=O)N[C@@H](CC(C)C)C(=O)N1CCC[C@H]1C(=O)N1CCC[C@H]1C(=O)N[C@H](C(=O)N[C@@H](CC(N)=O)C(=O)N[C@H](C(=O)NCC(=O)N[C@@H](CO)C(=O)N[C@@H](CC(N)=O)C(=O)N[C@H](C(=O)N[C@@H](Cc1ccc(O)cc1)C(N)=O)[C@@H](C)O)C(C)C)[C@@H](C)O` [pramlintide], the “pH values at which the peptide tends to aggregate” value in data set [1] is listed as “above 5”.

For “Natural human IAPP (KCNTATCATQRLANFLVHSSNNFGAILSSTNVGSNTY; listed as Homo sapiens) [peptide hormone of 37 amino acids]”, in data set [2] (setting [6]), the onset of aggregation result is “began immediately after the solution was prepared” and the “time after which peptide was completely precipitated” value turned out to be 20 h. For the same molecule, the “time after which peptide was completely precipitated” value in data set [2] (100 μM in 10 mM sodium phosphate buffer) was 2 h. In addition, the “concentration at which fibriles form” value in data set [3] came to 625 nM. Besides, the “presence of fibriles by EM” value in data set [4] was “composed primarily of IAPP amyloid fibriles”. The “fibrile formation by EM” value in the data set with IAPP is “composed primarily of IAPP amyloid fibriles”. For the same molecule, in data set [5], the “hormonal activity (AC activation potential) after storage in solution” value is “may lose more than half of its original hormonal activity”.
